Measured values taken from the supplement of paper PMC9170038.

test system: MS2 coat protein; test: apparent KD of MS2 coat protein; higher = weaker reporter binding; conditions: Eterna round: R107; input ligand: arginine 13.2 mM
In short: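 Normalised binding curves from single clusters were fitted, and the median fit for each design is given as apparent KD. The clusters held designed RNA switches transcribed on-chip from Illumina sequencing clusters. These were titrated with SNAP-549-labelled MS2 coat protein (twofold steps from 0.7 or 1.5 nM to 3 µM, 0.8–1.5 h to 10–20 min per step) in 100 mM Tris-HCl pH 7.5, 80 mM KCl, 4 mM MgCl2, without or with constant ligand.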

| Sequence | apparent KD of MS2 coat protein [µM] |
| --- | --- |
| CGACACCAGGCAAUCCAUCACCCGGCUGAUACCAGCUCUUUUGGAAGCCCUUGGCAGCAGAGAACAUGAGGAUCACCCAUGUCAG [theeternabot_exclusion_MS2_Theo_A_18] | 0.0145 |
| UCGGAGAAGUCGGCCGCCACUGAACUCUUGUUCUACAUGAGGAUCACCCAUGUUCCUUUGUUUAACAGGACCGGGACUUAUACGA [JR_SSTryptoB_Sub009] | 0.108 |
| GGAUCAGGAUCGGCCGCCACUGAUAGUGAUCCAACGACAUGAGGAUCACCCAUGUACAUUUUAAUCAGGACCGGGAUCAAGUUCC [Tryp B Ex t7] | 0.04 |

same assay, conditions: Eterna round: R107; input ligand: none

| Sequence | apparent KD of MS2 coat protein [µM] |
| --- | --- |
| UGUAUGUGAUCUGAUACCAGAGUGAAUAACCUGAGGAUCACCCUGGUAAGGCGAAAGCCACUCCCUUGGCAGCAGAUCGCAUACU | 0.136 |
| UUGUUGUUUGGAAGGAGCGUGUAUGAUUAAGAACAUGAGGAUCACCCAUGUUGUAGGAUAGCACAGGUAGGUCGCCGGGUGGUGG [11.W] | 0.0148 |
| GGUGGCUGGAUUGAUACCAGCCACCACCGAUAGACCACAUGAGGAUCACCCAUGUUGGGUGGCCCUUGGCAGCAGUCCAGCUGCC [#1 Same State - Theophylline B Attempt #9 (HarryS)] | 0.388 |
| ACAUGAGGGAUGGAUACCAGCGACAUGAGGAUCACCCAUGUAUGAGGAUCACCCAUGUUAUGCCCUUGGCAGCCACAAACAUGAG [UUYMULLIN] | 0.0143 |
| GCACCAGGUACGGAUACCAGACAUUGCCAAUUGGGUGAACAUGAGGAUCACCCAUGUUAAGUCCCUUGGCAGCCGUACCUGGUGC [ETB NP+V+V2 #6 Same Structure] | 0.0106 |
| AGUCUCAGUGGAAGGAGCGUCGCGACUGCUACAUGAGGAUCACCCAUGUCGCCUUGAGCGCGACAGGUAGGUCGCCACGGUAGGC [Erraraorle] | 0.0175 |
| AACAUGAGGAUCACCCAUGUAAAACCGGUACGAGGACCGGUACGGCCGCCACUCGAAACAUGAGGAUCACCCAUGUAAUAAUAUU [Same State Trypophan A GF 21] | 0.0635 |
| AGAGUCAGACAAAAGUCUGGCUCAGCCGAAGGAGCGUCCGAAAGGACAGGUAGGUCGCGGUUACUUGAGGAUCACCCAAGUUCCU [ArgAS 26 #OpenEnded #AlternativeMS2] | 0.163 |
| UGUAUGGACUGAAGGAGCGGAAAAUAACCAUGAGGAUCACCCAUGGAAUAGGCGAAAGCCAUCCAGGUAGGUCGCAGUCCAUACU | 0.0316 |
| GCGGUCGGAGUGCGGCGUGUUCCGCUCCGUCGAGGACCGGUACGGCCGCCACUCGACAUGAGGAUCACCCAUGUCCGACCGCGCG [#1 Exclusion - Tryptophan A Attempt #5 (HarryS)] | 0.0134 |
| ACGAUAGGACUUGAGGAUCACCCAGGUGAUACCAGCCUGGAAACAGGCCCUUGGCAGCACUAAUACUCCAAUAACCUAUCGAAUA [TheoAX 16 #MicroSwitchBubble #AlternativeMS2] | 0.195 |
| AUUCUUUACUGAAGGAGCGUCAUUCUUACAUGAGGAUCACCCAUGUUUAUUCUUUAUGAUUGACAGGUAGGUCGCAGAUUUUUUA [#11 Same State - Arginine B] | 0.0178 |
| UCAUGCAGGUCGGCCGCCACUACACACAUGAGGAUCACCCAUGUAGUUACUGGGUGAAGUGGCAGUAGGACCGGGACCUGCACAU [Brourdmod16] | 0.607 |

same assay, conditions: Eterna round: R107; input ligand: theophylline 20 uM

| Sequence | apparent KD of MS2 coat protein [µM] |
| --- | --- |
| GCGUGUUAUAGUCAUCGUGAGCGUCCAUCCCGAGGACCGGUACGGCCGCCACUCGCCACAGGACAUGAGGAUCACCCAUGUUAUG [theeternabot_exclusion_MS2_Trp_A_3] | 0.0168 |
| ACAUGAGGAUCACCCAUGUGGCGACUUGAUACCAGACCCGCACUAGUCCCUUGGCAGCAACUACGUGUGGGACACCCAUGUGAAG [aszkullin] | 0.0239 |
| UGUAUGUGAUCUGAUACCAGAGUGAAUAACCUGAGGAUCACCCUGGUAAGGCGAAAGCCACUCCCUUGGCAGCAGAUCGCAUACU | 0.1 |
| UUGUUGUUUGGAAGGAGCGUGUAUGAUUAAGAACAUGAGGAUCACCCAUGUUGUAGGAUAGCACAGGUAGGUCGCCGGGUGGUGG [11.W] | 0.0225 |
| UUAUAAGUACCGGUCCUCAGAUCCUCAUGACGAGGACCGGUACGGCCGCCACUCGAAACAUGAGGAUCACCCAUGUAAUAAUAUU [Brourdmod07] | 0.0253 |
| AUAAUAAUCAUGGGUGAAGGUCCUCGCAAACGAGGACCGGUACGGCCGCCACUCGAACAUGAGGAUCACCCAUGUGUGAGGACCU [M' - T' - T - MS2 - T'' Design 2] | 0.0597 |
| GGUGGCUGGAUUGAUACCAGCCACCACCGAUAGACCACAUGAGGAUCACCCAUGUUGGGUGGCCCUUGGCAGCAGUCCAGCUGCC [#1 Same State - Theophylline B Attempt #9 (HarryS)] | 0.649 |
| UCGCACAUGAGGAUCACCCAUGUACUAGAUACCAGUGACGCGGUGCACCCUUGGCAGCUGGUGCUGAGUGAUGGUUCCCUCGGCA [Exclusion Theophylline A GF8] | 0.137 |
| GCACUACAUGAGGAUCACCCAUGUGCAGAUACCAGAGGUGUAUGCCUCCCUUGGCAGCUGCGUCGCUCUGGCAGCUUGUGGGUUG [Same State Theophylline A GF18] | 0.117 |
| ACAUGAGGGAUGGAUACCAGCGACAUGAGGAUCACCCAUGUAUGAGGAUCACCCAUGUUAUGCCCUUGGCAGCCACAAACAUGAG [UUYMULLIN] | 0.02 |
| GCACCAGGUACGGAUACCAGACAUUGCCAAUUGGGUGAACAUGAGGAUCACCCAUGUUAAGUCCCUUGGCAGCCGUACCUGGUGC [ETB NP+V+V2 #6 Same Structure] | 0.0177 |
| ACAUGAGGAUCACCCAUGUGUGUAAAUCCUCGAGGACCGGUACGGCCGCCACUCGAUCGAGUGUAAGUUGAAUGUAACAUUCAAC [whbob_SS_trypto A_2s8] | 0.118 |
| ACGUCCGGUUUACUCGUGGGCAUGGUCGAUACCAGUAUUUUAAUCUACCCUUGGCAGCGACAUGAGGAUCACCCAUGUGCGAAGA [XTheo A #21] | 0.0306 |
| AGUCUCAGUGGAAGGAGCGUCGCGACUGCUACAUGAGGAUCACCCAUGUCGCCUUGAGCGCGACAGGUAGGUCGCCACGGUAGGC [Erraraorle] | 0.0296 |
| UUUUACGCAAGUAAUUCCCGGGAACCGGAUACCAGCUCCUCCAACAGCCCUUGGCAGCCGACCACAUGAGGAUCACCCAUGUUUC [theeternabot_exclusion_MS2_Theo_A_28] | 0.0161 |
| UAAUAAAUAAAUCCAAGGUGAAGGUCAGAUACCAGCCAGAUAACUGGCCCUUGGCAGCUGAAUAAGCUUGAGGAUCACCCAAGUA [TheoAS 26 #OpenEnded #MS2Late #AlternativeMS2] | 0.0684 |
| AUAACAUGAGGAUCACCCAUGUAAGCAGAUACCAGCUAGGAAACUAGCCCUUGGCAGCUGCAAUCCUCAUGUAUUGCAGCUGCAA [(M1)-(M2)-(T1)-(T2)-(M)'-(T)'_Design1] | 0.0262 |
| CCCAAUUUCCGAGAUAUGGGUCCAACUAAACGAGGACCGGUACGGCCGCCACUCGACUACAAACAUGAGGAUCACCCAUGUAAAG [theeternabot_exclusion_MS2_Trp_A_40] | 0.02 |
